{"source": "FireProtDB (doi:10.1016/j.bbapap.2007.05.016)", "conditions": "Streptomyces sp. (strain N174), Thermal, Fluorescence, reversible: No, whole UniProt chain shown", "note": "Several values for one entry are separate records, joined by “and”; a condition that tells them apart may be missing. Equal values may be shown once.", "data": [{"protein": "Chitosanase wild type, P33665 (protein) MHSQHRTARIALAVVLTAIPASLATAGVGYASTQASTAVKAGAGLDDPHKKEIAMELVSSAENSSLDWKAQYKYIEDIGDGRGYTGGIIGFCSGTGDMLELVQHYTDLEPGNILAKYLPALKKVNGSASHSGLGTPFTKDWATAAKDTVFQQAQNDERDRVYFDPAVSQAKADGLRALGQFAYYDAIVMHGPGNDPTSFGGIRKTAMKKARTPAQGGDETTYLNAFLDARKAAMLTEAAHDDTSRVDTEQRVFLKAGNLDLNPPLKWKTYGDPYVINS", "values": [{"measurement": "Tm", "setting": "pH 4.5, Sodium acetate 50 mM", "value": "53.5 °C and 54 °C"}, {"measurement": "Tm", "setting": "pH 4.5, Sodium acetate 150 mM", "value": 44.4, "unit": "°C"}, {"measurement": "Tm", "setting": "pH 4.75, Sodium phosphate 50 mM", "value": 53.7, "unit": "°C"}, {"measurement": "Tm", "setting": "pH 7, Sodium phosphate 50 mM", "value": 41.3, "unit": "°C"}]}]}
